Data: PMC8469728, “Molecular and Enzymatic Characterization of Flavonoid 3′-Hydroxylase of Malus × domestica” (Plants, 2021)

T1: CsCH3H (Cosmos sulphureus, UniProt D8KZE8)
T1 construct: recombinant, expressed in Saccharomyces cerevisiae INVSc1, microsomal preparation
T1 sequence (D8KZE8 1-512): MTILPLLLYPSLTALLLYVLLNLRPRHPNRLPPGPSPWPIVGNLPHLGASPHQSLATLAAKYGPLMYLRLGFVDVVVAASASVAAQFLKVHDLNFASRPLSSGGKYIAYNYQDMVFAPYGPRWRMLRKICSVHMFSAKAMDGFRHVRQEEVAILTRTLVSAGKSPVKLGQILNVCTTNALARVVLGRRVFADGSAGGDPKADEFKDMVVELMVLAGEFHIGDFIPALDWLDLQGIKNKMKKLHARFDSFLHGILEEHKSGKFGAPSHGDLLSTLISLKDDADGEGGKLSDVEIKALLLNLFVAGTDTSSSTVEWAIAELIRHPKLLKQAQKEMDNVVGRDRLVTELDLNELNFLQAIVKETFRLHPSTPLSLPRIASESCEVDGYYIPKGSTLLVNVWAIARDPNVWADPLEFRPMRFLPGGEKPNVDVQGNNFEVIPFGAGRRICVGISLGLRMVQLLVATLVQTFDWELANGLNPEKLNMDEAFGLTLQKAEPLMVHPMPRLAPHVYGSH


Assays:
[1] = biological target: T1, CsCH3H; experiment: LC-MS/DAD detection of 3-hydroxyphloretin formed by yeast microsomes; assay type: biochemical; details: 10 µM substrate, 1.55 mM NADPH, 100 mM HEPES pH 7.5, 30 °C
[2] = substrate: O=c1c(O)c(-c2ccc(O)cc2)oc2cc(O)cc(O)c12; experiment: cells, lysate or membranes; assay type: biochemical, Malus domestica; details: 0.5 mM NADPH, Tris/HCl pH 6.5–6.75, 25 °C, labelled compound, pH 6.0
[3] = substrate: O=C1c2c(O)cc(O)cc2O[C@H](c2ccc(O)cc2)[C@H]1O; experiment: cells, lysate or membranes; assay type: biochemical, Malus domestica; details: 0.5 mM NADPH, Tris/HCl pH 6.5–6.75, 25 °C, labelled compound, pH 6.0
[4] = substrate: O=C1C[C@@H](c2ccc(O)cc2)Oc2cc(O)cc(O)c21; experiment: cells, lysate or membranes; assay type: biochemical, Malus domestica; details: 0.5 mM NADPH, Tris/HCl pH 6.5–6.75, 25 °C, labelled compound, pH 6.0

Row | Molecule | LC-MS/DAD detection of 3-hydroxyphloretin formed by yeast microsomes [1] | Km [2] | Vmax [2] | Km [3] | Vmax [3] | Km [4] | Vmax [4]
1 | O=C(CCc1ccc(O)cc1)c1c(O)cc(O)cc1O [phloretin] | produced sufficient amounts of 3-hydroxyphloretin to be detected by the DAD | – | – | – | – | – | –
2 | MdF3′HI (Malus domestica; I211M) (protein, full-length ORF, 511 residues, C-terminal Twin-Strep-tag, expressed in Saccharomyces cerevisiae INVSc1, microsomal preparation; clone MH468788 has I211 and S224, differing from FJ919631 at both residues (M211 and P224 there)) MFVLIVFTVVFAFFLYRIFAPGGSRHSLPLPPGPKPWPVVGNLPHLGPVPHHSLAALARQYGPLMHLRLGFVDVVVAASASVASQFLKTHDANFSSRPPNSGAKHLAYNYQDLVFAPYGPRWRLLRKISSVHLFSGKALDDLKHVRQEEVGVLAHGLASAGSKPVNLAQLLNVCTVNALGRVMVGRRLFGNGMGGEDPKADEFKSMVVEMMVLAGVFNIGDFISSLEWLDLQGVAGKMKKLHKRFDAFLTAIVEEHKRSRGGKHVDMLTTLLSLKEDADGEGAKLTDTEIKALLLNMFTAGTDTSSSTVEWAIAELLRHPKILAQLQQELDQVVGRDRLVTESDLPNLTYLQAVIKETFRLHPSTPLSLPRMATESCEINGFHIPKGATLLVNVWAVSRDPDQWSEPLEFRPERFMSGGEKPNVDIRGNDFEVIPFGAGRRICAGMSLGLRMVSLMTATLVHGFDWTLADGLTPEKLNMDEAYGLTLQRAAPLMVHPRNRLAPHAYNASSS | – | 0.21 ± 0.07 µM | 21 µM/min | 0.42 ± 0.06 µM | 28.2 µM/min | 2.11 ± 1.5 µM | 43.8 µM/min
3 | MdF3′HII (Malus domestica) (protein, full-length ORF, 511 residues, C-terminal Twin-Strep-tag, expressed in Saccharomyces cerevisiae INVSc1, microsomal preparation; differs from FJ919633 at residues 73 and 457) MFVLIFFTVVLAFFLYRLFAPGGSRHALPLPPGPKPWPVVGNLPHLGPVPHHSLAALARQYGPLMHLRLGFADVVVAASASVASQFLKTHDANFSSRPPNSGAKHLAYNYQDLVFAPYGPRWRMLRKISSVHLFSGKALDDLKHVRQEEVGVLAHGLASAGSKPVSLGQLLNVCTVNALGRVMVGRRLFGDGGGREDQKADEFKSMVVEMMVLAGVFNIGDFIPALEWLDLQGVAGKMKKLHKRFDAFLTAIVEDHKRSGEGKHVDMLTTLLSLTDDADGEGAKLTDTEIKALLLNMFTAGTDTSSSTVEWAIAELLRHPKILAQLQQELDQVVGRDRLVTESDLPNLTYLQAVIKETFRLHPSTPLSLPRMASESCEINGFHIPKGATLLVNVWAISRDPAQWSEPLEFRPERFLPGGEKPNVDVKGNDFEVIPFGAGRRICAGMTLGLRMVSLMTATLVHGFDWTLADGLTPEKLNMDEAYGLTLQRAAPLMVHPRNRLAPHAYNASSP | – | 0.20 ± 0.02 µM | 19.8 µM/min | 0.31 ± 0.03 µM | 19.8 µM/min | 0.31 ± 0.10 µM | 30 µM/min
